Laboratory results from the supplement of paper PMC7125110.
± gives the standard error. Fewer inactive variants are shown than the library holds.

B1: glmS ribozyme (parent)
chain: AUAAAAGCGCCAGAACUACAGAAAUGUAGUUGACGAGGAGGAGGUUUAUCGAAUUUUCGGCGGAUGCCUCCAAA

How the values were obtained:
Details in all cases: with glucosamine-6-phosphate
glucosamine-6-phosphate [1] = variants of: B1; assay: self-cleavage kobs at 40 uM GlcN6P; higher = faster cleavage; RNA array
Summary of the method: (§1)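 On sequenced MiSeq chips, barcoded ribozyme variants were made in situ by E. coli RNA polymerase and followed at 37 °C through a hybridised Cy3 probe. Glucosamine-6-phosphate was flowed in at 40 μM to 10 mM in HEPES/KCl/Mg(OAc)2 buffer. Exponential fits to normalised per-tile medians gave kobs, and weighted Michaelis–Menten fits gave kcat and KM.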

glucosamine-6-phosphate [2] = variants of: B1; assay: self-cleavage kobs at 10000 uM GlcN6P; higher = faster cleavage; RNA array
Summary of the method: as §1

glucosamine-6-phosphate [3] = variants of: B1; assay: self-cleavage kobs at 160 uM GlcN6P; higher = faster cleavage; RNA array
Summary of the method: as §1

glucosamine-6-phosphate [4] = variants of: B1; assay: self-cleavage kobs at 640 uM GlcN6P; higher = faster cleavage; RNA array
Summary of the method: as §1

glucosamine-6-phosphate [5] = variants of: B1; assay: self-cleavage kobs at 2500 uM GlcN6P; higher = faster cleavage; RNA array
Summary of the method: as §1

Variant	self-cleavage kobs at 40 uM GlcN6P (glucosamine-6-phosphate [1])	self-cleavage kobs at 10000 uM GlcN6P (glucosamine-6-phosphate [2])	self-cleavage kobs at 160 uM GlcN6P (glucosamine-6-phosphate [3])	self-cleavage kobs at 640 uM GlcN6P (glucosamine-6-phosphate [4])	self-cleavage kobs at 2500 uM GlcN6P (glucosamine-6-phosphate [5])
G32U C50G C61A	0.000162 ± 2.5e-05 s⁻¹	0.000319 ± 4.2e-05 s⁻¹	–	–	–
G32C A39C G44A A48G U65C C68A C71A	< 1e-05 s⁻¹	< 1e-05 s⁻¹	–	–	–
C34A U54C C61G	< 1e-05 s⁻¹	–	< 1e-05 s⁻¹	–	–
C34A U65G	< 1e-05 s⁻¹	< 1e-05 s⁻¹	< 1e-05 s⁻¹	< 1e-05 s⁻¹	< 1e-05 s⁻¹
G32C G62A	< 1e-05 s⁻¹	–	< 1e-05 s⁻¹	< 1e-05 s⁻¹	< 1e-05 s⁻¹
G32U A36U G41A	< 1e-05 s⁻¹	–	–	< 1e-05 s⁻¹	–
U30G C50G	0.000146 ± 6.1e-05 s⁻¹	–	7.58e-05 ± 2.1e-05 s⁻¹	7e-05 ± 2.2e-05 s⁻¹	0.000109 ± 2.3e-05 s⁻¹
A33U G38U A42U U56C G63U	< 1e-05 s⁻¹	< 1e-05 s⁻¹	–	–	–
A33U U65C	< 1e-05 s⁻¹	–	< 1e-05 s⁻¹	< 1e-05 s⁻¹	–
A33C G44C	< 1e-05 s⁻¹	< 1e-05 s⁻¹	< 1e-05 s⁻¹	< 1e-05 s⁻¹	< 1e-05 s⁻¹
G32A G62A	< 1e-05 s⁻¹	< 1e-05 s⁻¹	< 1e-05 s⁻¹	< 1e-05 s⁻¹	–
G32U G38C	< 1e-05 s⁻¹	–	–	–	–
C34G A42C C71U	< 1e-05 s⁻¹	–	–	–	< 1e-05 s⁻¹
G32C G38C G60C C67G	< 1e-05 s⁻¹	< 1e-05 s⁻¹	–	< 1e-05 s⁻¹	–
U31G G32C G38U G43U G59A G63A U69A	< 1e-05 s⁻¹	–	–	–	–
U30G G51C	< 1e-05 s⁻¹	–	–	–	–
A33C U45C	< 1e-05 s⁻¹	4.65e-05 ± 1.3e-05 s⁻¹	–	–	–
A33G G62C	< 1e-05 s⁻¹	< 1e-05 s⁻¹	–	< 1e-05 s⁻¹	< 1e-05 s⁻¹
A33G G62A	< 1e-05 s⁻¹	< 1e-05 s⁻¹	–	–	–
G32U U55G A64U	< 1e-05 s⁻¹	–	–	–	–
A33C G44A C71A	< 1e-05 s⁻¹	< 1e-05 s⁻¹	–	–	–
U31C G44U U56C	< 1e-05 s⁻¹	–	–	–	–
A33G C34U	< 1e-05 s⁻¹	–	–	–	< 1e-05 s⁻¹
U30G G44C	< 1e-05 s⁻¹	3.93e-05 ± 1.1e-05 s⁻¹	< 1e-05 s⁻¹	–	–
U31G A36C C61U	< 1e-05 s⁻¹	< 1e-05 s⁻¹	–	–	–

Variant	self-cleavage kobs at 40 uM GlcN6P (glucosamine-6-phosphate [1])	self-cleavage kobs at 10000 uM GlcN6P (glucosamine-6-phosphate [2])	self-cleavage kobs at 160 uM GlcN6P (glucosamine-6-phosphate [3])	self-cleavage kobs at 640 uM GlcN6P (glucosamine-6-phosphate [4])	self-cleavage kobs at 2500 uM GlcN6P (glucosamine-6-phosphate [5])
A33G G63A	< 1e-05 s⁻¹	< 1e-05 s⁻¹	< 1e-05 s⁻¹	–	–
A33C G63U G66U	< 1e-05 s⁻¹	< 1e-05 s⁻¹	–	< 1e-05 s⁻¹	–
C34A U47A	< 1e-05 s⁻¹	–	–	–	–
A33C A36C	< 1e-05 s⁻¹	–	–	–	< 1e-05 s⁻¹
G32C G44A	< 1e-05 s⁻¹	< 1e-05 s⁻¹	< 1e-05 s⁻¹	< 1e-05 s⁻¹	< 1e-05 s⁻¹
U30G A64U	< 1e-05 s⁻¹	–	< 1e-05 s⁻¹	–	–
U30G U49C A64C	< 1e-05 s⁻¹	< 1e-05 s⁻¹	< 1e-05 s⁻¹	–	–
A33U C34A	< 1e-05 s⁻¹	< 1e-05 s⁻¹	< 1e-05 s⁻¹	< 1e-05 s⁻¹	< 1e-05 s⁻¹
U31C G38A U46G	< 1e-05 s⁻¹	–	–	–	–
U31C C34U G60U	< 1e-05 s⁻¹	< 1e-05 s⁻¹	–	–	–
C34A U57G G63C C71U	< 1e-05 s⁻¹	–	–	< 1e-05 s⁻¹	< 1e-05 s⁻¹
U31C G37C	< 1e-05 s⁻¹	–	< 1e-05 s⁻¹	–	–
U31C U49G C67U	< 1e-05 s⁻¹	–	–	–	–
A33G U65A	< 1e-05 s⁻¹	< 1e-05 s⁻¹	–	< 1e-05 s⁻¹	< 1e-05 s⁻¹
U31G G32U	5.84e-05 ± 1e-05 s⁻¹	0.00232 ± 0.00036 s⁻¹	–	0.000363 ± 7.2e-05 s⁻¹	0.000925 ± 0.00026 s⁻¹
A33G U47G	< 1e-05 s⁻¹	< 1e-05 s⁻¹	< 1e-05 s⁻¹	< 1e-05 s⁻¹	–
G32A C50G U56G C70U	0.000356 ± 7.7e-05 s⁻¹	0.00032 ± 7.2e-05 s⁻¹	–	–	–
G32U A48U	< 1e-05 s⁻¹	–	< 1e-05 s⁻¹	< 1e-05 s⁻¹	–
U30G U55G C71U	0.00027 ± 5e-05 s⁻¹	0.00591 ± 0.001 s⁻¹	–	0.00135 ± 0.00022 s⁻¹	0.00316 ± 0.0014 s⁻¹
U31G A42C	< 1e-05 s⁻¹	–	< 1e-05 s⁻¹	–	< 1e-05 s⁻¹
U31C G35A G37U	< 1e-05 s⁻¹	–	–	–	–
G32C U57C	< 1e-05 s⁻¹	–	< 1e-05 s⁻¹	< 1e-05 s⁻¹	–
A33C C34A	< 1e-05 s⁻¹	< 1e-05 s⁻¹	< 1e-05 s⁻¹	< 1e-05 s⁻¹	< 1e-05 s⁻¹
A33U U65G C71U	< 1e-05 s⁻¹	–	–	–	–
